The values below come from patent US20160362476.

The series deals with T1, phiC31 integrase (Streptomyces phage phiC31) (UniProt Q9T221).
T1 sequence: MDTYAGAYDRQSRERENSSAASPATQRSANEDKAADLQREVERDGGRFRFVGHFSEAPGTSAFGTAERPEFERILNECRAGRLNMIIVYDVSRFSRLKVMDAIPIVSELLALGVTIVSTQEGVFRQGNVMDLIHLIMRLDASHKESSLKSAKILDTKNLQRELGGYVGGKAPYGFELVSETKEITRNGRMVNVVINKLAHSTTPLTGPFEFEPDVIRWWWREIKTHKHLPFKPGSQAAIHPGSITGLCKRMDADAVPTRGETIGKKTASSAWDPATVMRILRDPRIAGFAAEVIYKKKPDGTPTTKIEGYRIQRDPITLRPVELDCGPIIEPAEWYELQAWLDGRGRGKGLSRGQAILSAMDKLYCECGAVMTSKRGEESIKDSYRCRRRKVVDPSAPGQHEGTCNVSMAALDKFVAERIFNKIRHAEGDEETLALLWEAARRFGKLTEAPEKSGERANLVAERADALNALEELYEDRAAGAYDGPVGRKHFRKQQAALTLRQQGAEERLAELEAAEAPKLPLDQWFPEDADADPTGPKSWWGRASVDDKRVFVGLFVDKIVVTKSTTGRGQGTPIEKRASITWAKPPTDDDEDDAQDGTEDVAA
Nature of the series: cell_activity.

Consider “phiC31 attP (36 bp, used as scFv linker in pDonor)”, for which, for the setting “co-integration of pDonor attP with pAcceptor attB in E. coli TG1, camR/ampR ratio versus already co-integrated plasmid”, the activity was more than 90%.

On to “GGTGCCAGGGCGTGCCCTTGGGCTCCCCGGGCGCGTACTGAANTATACAAA (double strand) [phiC31 attB (36 bp, in pAcceptor 5' of promoterless camR)]”, for which the activity (recombination partner of attP in E. coli TG1, camR selection) is more than 90%.
